# Laboratory results taken from the supplement of paper PMC10724198.
# ± gives the standard deviation of the averaged measurements.
# Tested on: Saccharomyces cerevisiae
# Experiment: protein stability index of tFT-peptide fusion (C-terminal peptide) (PSI (0-1 scale)); higher = more stable (slower turnover)
# Settings: genetic background: wild type; temperature: 30 C
# Description: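 Multiplexed protein stability (MPS) profiling in S. cerevisiae. Random 12-aa peptides (tFT-X12 library) are fused to the C-terminus of a sfGFP-mCherry tandem fluorescent timer, after mCherry and a GGGS linker. Cells are FACS-sorted into 8 mCherry/sfGFP bins and deep-sequenced. The protein stability index (PSI) is the read-weighted bin average, scaled from 0 (unstable) to 1 (stable). Only peptides with >10 reads are reported; cells were grown at 30 °C in SC-His with glucose.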
# 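Further: PSI is a weighted mean of sequencing reads over stability bins, variants kept only with over 10 reads, mCherry proximal and sfGFP distal, peptide attached via GGGS linker.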
row,Sequence,protein stability index
1,FRLICSRQFFAG,0.593 ± 0.018
2,KANIKGIKTRIT,0.642 ± 0.076
3,IFWRGVVDVCSG,0.584 ± 0.065
4,SMGLYRDVVSGH,0.665 ± 0.029
5,VDASQTRYSRGS,0.73964 ± 0.00026
6,RLWPPGGEFRLV,0.719 ± 0.078
7,RPFPLTRPTLLF,0.67 ± 0.016
8,SSASSLTIYTRG,0.728 ± 0.024
9,CYGFCVRTYPAI,0.684 ± 0.037
10,LVYPSPPLQPPP,0.649 ± 0.013
11,PTHDPPSLHSPA,0.604 ± 0.027
12,GLQFRPFCVLEL,0.634 ± 0.013
13,LPLSRPPLPPPL,0.786 ± 0.031
14,GVFVVGLSCSLR,0.5521 ± 0.0048
15,RPIPMEGAYYLV,0.693 ± 0.027
16,RPSVSNVSEAEE,0.6479 ± 0.0037
17,FSLHPGTYLVVL,0.5913 ± 0.0026
18,WFPSSLPLTCIQ,0.651 ± 0.084
19,FPLPPHSSPLPP,0.695 ± 0.037
20,LPPSSFPTPSPP,0.723 ± 0.08
21,RAVVTGEGESGG,0.624 ± 0.0092
22,PLPPSAPPLPPS,0.778 ± 0.091
23,RKQKRGSKKKKQ,0.721 ± 0.049
24,SPCLTRSALPSP,0.687 ± 0.038
25,VGQVVTCFMSDA,0.678 ± 0.028

row,Sequence,protein stability index
1,DFVRVVGDLRWE,0.587 ± 0.041
2,SCYLLDFGCIWV,0.646 ± 0.0083
3,LFSLPPRASFSL,0.773 ± 0.043
4,KCCRVTCCGGLR,0.65 ± 0.028
5,LSYWPDARRPVL,0.643 ± 0.046
6,CCLSFMSPFFCF,0.75 ± 0.026
7,TIGPVRSGHVLA,0.6807 ± 0.0055
8,SPLLPPPPSPPL,0.633 ± 0.081
9,TVTPAARTWHGR,0.67782 ± 0.00032
10,PSPLFSGSFLFF,0.716 ± 0.029
11,GVSGQGLVAVEV,0.59 ± 0.035
12,PNPEKPPGAPGQ,0.63 ± 0.087
13,LGGWLWSPGVVV,0.6355 ± 0.0056
14,VGTAVVDRHGVR,0.603 ± 0.045
15,VSCGGSARRASP,0.704 ± 0.0078
16,IVTQGCLFFLVR,0.687 ± 0.038
17,FRTLVEAGSLMD,0.6995 ± 0.00077
18,VWLGGRECVVRG,0.597 ± 0.02
19,SLPPALPLPLSH,0.64 ± 0.06
20,HPPPSPRPPPPP,0.691 ± 0.039
21,GMLSIHWNIGGT,0.725 ± 0.014
22,VMGGWGCGVLRG,0.731 ± 0.021
23,GGGVGRLAGLLG,0.693 ± 0.046
24,QPGTPLSPPPSP,0.49 ± 0.019
25,PPPLPPPAPPPP,0.658 ± 0.025

row,Sequence,protein stability index
1,HHPSPPSPSPAC,0.698 ± 0.018
2,GAGRGLRQGSGG,0.666 ± 0.043
3,FCCFFFPALCCL,0.493 ± 0.024
4,SSRRVGRWGGLG,0.618 ± 0.11
5,PLHYPTPCHPLP,0.726 ± 0.052
6,HGLPPPLPPLRS,0.689 ± 0.019
7,VLFPPGFPPGLL,0.817 ± 0.04
8,DVLGCFDYLLFR,0.623 ± 0.03
9,LVDARVRLTFVI,0.536 ± 0.014
10,VGLTGFQHTEWG,0.753 ± 0.027
11,LSLPQPHPPLKS,0.679 ± 0.029
12,GVLGWTRFRSCS,0.715 ± 0.077
13,MGGCGARAVVVG,0.6196 ± 0.0032
14,FPRPLPPLSPLL,0.7162 ± 0.0037
15,PCHPRPPPASPP,0.692 ± 0.096
16,LVRFVLNKYRGR,0.718 ± 0.012
17,DRVHVSNGYLEF,0.684 ± 0.1
18,SYLWRINVSGCV,0.6955 ± 0.0013
19,PHPLPSPSPPPH,0.69228 ± 0.00045
20,PAPVFPILTPPY,0.734 ± 0.059
21,PSPSAGPAPTPL,0.65 ± 0.084
22,FTWRTIRPRCQW,0.7184 ± 0.005
23,VWSDGCWVDWLL,0.733 ± 0.13
24,LLPLPSFSPCSL,0.7013 ± 0.0034
25,GGGCRASSLFPE,0.6644 ± 0.0058

row,Sequence,protein stability index
1,SPALSPCLRTGY,0.717 ± 0.062
2,PSLLLPPYSSAP,0.743 ± 0.021
3,VALSLTSIFFMS,0.556 ± 0.041
4,YLCARGIFTLYV,0.602 ± 0.034
5,HRPDGTSRKSGA,0.662 ± 0.024
6,TLRPKASPPAAL,0.642 ± 0.021
7,FCLGSVIWERDS,0.625 ± 0.076
8,LVAHLSTAPPPP,0.675 ± 0.0061
9,VRCCFGGRGAIA,0.6461 ± 0.0016
10,VVGGVLRFLLLW,0.599 ± 0.013
11,GGGGGAGGDGRG,0.66 ± 0.022
12,PRRLAPPPPPSP,0.744 ± 0.012
13,SLSVRTIFTSRS,0.71 ± 0.071
14,WGGGGRGWGSRG,0.684 ± 0.057
15,PLSLPPPSPRPP,0.657 ± 0.013
16,RFLVRSFIGWRG,0.669 ± 0.031
17,WTGTTGQSLYLS,0.733 ± 0.1
18,PRIGRPQSLTFH,0.621 ± 0.011
19,EDTMGKTASHTR,0.699 ± 0.019
20,ASGPLPPHPIAD,0.677 ± 0.011
21,CMGASRTRILTR,0.681 ± 0.046
22,GKVGGQGGKGVV,0.765 ± 0.13
23,PLPPPPYPPTLL,0.592 ± 0.016
24,SERRVKKIEEQI,0.77 ± 0.084
25,VSGAAFMSSAFW,0.753 ± 0.045

row,Sequence,protein stability index
1,KEQNKKQKAKDL,0.719 ± 0.1
2,RKKRRKVKRSEK,0.547 ± 0.034
3,SLALSSPLPPPP,0.735 ± 0.042
4,APSPPVPTGPRP,0.664 ± 0.059
5,CPSSFSALSNSR,0.671 ± 0.049
6,YGGAWGGVIHVC,0.657 ± 0.0081
7,RESGASLWATMR,0.734 ± 0.015
8,FWMIYPHLLTPP,0.629 ± 0.036
9,FSFVTFYSICDV,0.528 ± 0.012
10,SETGSGGLFSLP,0.693 ± 0.018
11,GFRFSERRFPGL,0.733 ± 0.0092
12,GVGCVGGGSSCA,0.67 ± 0.1
13,CRVWRAPSGWVG,0.646 ± 0.03
14,NYAMRGSVRTDK,0.665 ± 0.028
15,EAKRSRCESAEI,0.672 ± 0.01
16,KSKRKKKKQTKR,0.653 ± 0.024
17,IQHWGIRRRITY,0.728 ± 0.066
18,IDLIKIKKKTKK,0.786 ± 0.17
19,NTPSKKHDLNRL,0.707 ± 0.033
20,SMEVRGLKVRSC,0.617 ± 0.015
21,WRYFLGKGRMSF,0.742 ± 0.014
22,PPPPPPPHSPPS,0.664 ± 0.035
23,DVRNDSSLIIQI,0.688 ± 0.053
24,VIGAGTGCVVVG,0.72 ± 0.013
25,PPRPPPPPAHPP,0.557 ± 0.029

row,Sequence,protein stability index
1,GGDWVGHVLDLW,0.708 ± 0.012
2,KAGDRRPDNHSN,0.66 ± 0.064
3,LPPSSCPPPPTP,0.702 ± 0.068
4,DFIEINFDLFPP,0.6382 ± 0.00098
5,RVVDAPPSGCRS,0.688 ± 0.037
6,CFPLPRPLPYME,0.654 ± 0.12
7,LRRNHREPGYSK,0.684 ± 0.024
8,GGRRVVKSWVLG,0.66 ± 0.014
9,SEVIIAISNKNH,0.5275 ± 0.0019
10,KKQKKQKKKSHK,0.715 ± 0.047
11,AQTVNNALAKPI,0.6551 ± 0.0049
12,CVAGSGRGGVKR,0.6327 ± 0.0037
13,EKGSKTGNKPQT,0.688 ± 0.048
14,HRDPRFSRCSTC,0.69 ± 0.034
15,HAHPDQTKLDTA,0.7 ± 0.063
16,PPPRPPLPPPLP,0.692 ± 0.032
17,IKKRVTFSYDGK,0.686 ± 0.062
18,TPPPPAPSPPPP,0.761 ± 0.059
19,SYGWYRVRLLDC,0.57 ± 0.088
20,PTVLFQFSESWP,0.668 ± 0.044
21,HGFHSPPSDLPT,0.724 ± 0.15
22,VVPSRCCQRLRK,0.716 ± 0.035
23,VIVKNINKNTQI,0.717 ± 0.038
24,NYHAIANRILAK,0.6026 ± 0.004
25,ISLTSYVCGRVL,0.648 ± 0.014

row,Sequence,protein stability index
1,GSFYGAVYVVPV,0.669 ± 0.03
2,RFYFSLSWSGFC,0.66 ± 0.077
3,GVRPWGGMCSCL,0.7046 ± 0.0024
4,AGCVLDGRGVVA,0.615 ± 0.074
5,LLHPLPPPSYPP,0.689 ± 0.01
6,PFIDCEHIRGFN,0.735 ± 0.046
7,SSRYVATANICR,0.69 ± 0.013
8,NLRLYDCKVAPP,0.691 ± 0.036
9,RIAEYIDTKCPR,0.708 ± 0.0074
10,WVTSSTRGRSGS,0.644 ± 0.033
11,FAPTRAAPVTVS,0.5712 ± 0.0057
12,KKKYKKNKKKNK,0.65 ± 0.033
13,PTPLPPPPPRPD,0.715 ± 0.063
14,ADGLVGLLLSVV,0.62 ± 0.024
15,GPPPAWALCYPL,0.601 ± 0.023
16,LSLLPFLRPPPI,0.774 ± 0.043
17,LPRTPPPLAHGP,0.688 ± 0.041
18,GAMVVRSSSPWT,0.685 ± 0.019
19,GAEAFWAVRGGG,0.721 ± 0.009
20,RLPPPSPPVPLL,0.695 ± 0.0081
21,QGRTWGGCWGRG,0.649 ± 0.012
22,GARGRAYDRTSQ,0.669 ± 0.038
23,RSRSKKKKRKQY,0.671 ± 0.042
24,FALRDLHLSCFA,0.577 ± 0.012
25,ASVIWGGFSDSR,0.719 ± 0.015

row,Sequence,protein stability index
1,LHCRFDCTPFPY,0.67 ± 0.012
2,SPRLRSRQVALS,0.556 ± 0.17
3,PRGRSRPRCVIR,0.684 ± 0.13
4,VVTFSRSDIVLR,0.694 ± 0.076
5,HIIRGDCVGVLG,0.618 ± 0.017
6,DKDSTSRYSKPW,0.725 ± 0.022
7,HLCVDHLGCHSF,0.703 ± 0.048
8,LSFSFSPTSPPP,0.739 ± 0.072
9,REWRLVTCSDCL,0.668 ± 0.023
10,RGGGEGGKEDSQ,0.682 ± 0.047
11,SNCLKHAYTTRT,0.6604 ± 0.0056
12,NLYENQDHETYR,0.651 ± 0.13
13,PPPPPPPAPPLP,0.648 ± 0.044
14,PPRPPCSPLPPR,0.678 ± 0.052
15,RRVGVVAWGRGG,0.71 ± 0.01
16,PLPSHSRSRHPR,0.744 ± 0.075
17,ENVAKKEKITKK,0.694 ± 0.02
18,PSILRGVLSAPK,0.695 ± 0.04
19,VWRGVWQVVVGG,0.5227 ± 0.0013
20,CSSEGFSLASMI,0.707 ± 0.025
21,SLSPWRLPIGGW,0.708 ± 0.033
